Numbering of substitutions follows the chain as printed.

For data set [1], the target named is T1, AcFur SI H31A;H88A (Acidithiobacillus caldus MTH-04) (UniProt A0A060A2G1).
T1 sequence: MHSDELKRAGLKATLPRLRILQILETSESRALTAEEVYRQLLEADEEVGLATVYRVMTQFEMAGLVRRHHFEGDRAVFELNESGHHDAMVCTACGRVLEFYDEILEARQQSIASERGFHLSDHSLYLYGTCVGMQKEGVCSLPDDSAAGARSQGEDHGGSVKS
The data set is described as follows: EMSA. The note with it: EMSA: 0.4 nM DNA, 0/2/4/8 nM protein, 10 mM Tris-HCl pH 8.0, 100 mM NaCl, 1 mM MnCl2, room temperature, 30 min; 5% native PAGE in 0.5x TBE, EB stain.

The target of data set [2] is T2, AcFur SII E106A;H123A (Acidithiobacillus caldus MTH-04) (UniProt A0A060A2G1).
T2 sequence: T1 sequence with A31H, A88H, E106A, H123A
The data set is described as follows: EMSA. The note with it: EMSA: 0.4 nM DNA, 0/2/4/8 nM protein, 10 mM Tris-HCl pH 8.0, 100 mM NaCl, 1 mM MnCl2, room temperature, 30 min; 5% native PAGE in 0.5x TBE, EB stain.

Turning to “GCGTAGGACGTCCTTGATAACTGCAACTAAGTTGCATATATTCCGCACGACCACTCCGCGCGTCCCTGGGGAGCTTGACCGGTAAGTCTATTTATTGAATGATAATGATTAGCATTTATATTATTTGGAGAGATTGTCCATGCGTCGTATACCCCTCTGTGCGCTGCTGAGCACCATGCTTGCTTCCAGC (double strand) [feoP promoter]”, the binding result in data set [1] is reported as “no binding”; in data set [2], “binds more weakly”.

In the case of “TTCCACCTGCTCACCTGCGCGGGCCGAGCTCAGGCGGTGGGGGGAAAGGACTTGGGTCATGACGCTCACACTCCCAACGAGTTCGTGGGGACACTATATCATAATGGTAATCATTTGCAATATCAGCCCAAGGGAGGGCCGTCCCGGCGGACGCAGCCGCCGACGCTCAGTCCAGGTCGCCGTGCCTGGGTGTAAAACGC (double strand) [feoABC operator (feoA promoter)]”, the values for the binding result in data set [1] and in data set [2] were “no binding” and “binds more weakly”, respectively.
